“And” between values parts separate entries of the source, which are not always exact repeats. Identical values can stand only once. Values belong to the substance of their own block, whether it stands above or below them.
Columns and labels:
[1] = target: Aggregation Suppressing Protein A (AgsA) wild type, tagless (Salmonella enterica serovar typhimurium LT2); test: SEC-MALS; separated 24-mer fraction of the wild type after size exclusion chromatography; Superdex 200 10/300, 20 mM Tris, 50 mM NaCl, pH 7.5
[2] = target: Aggregation Suppressing Protein A (AgsA) wild type, tagless (Salmonella enterica serovar typhimurium LT2); test: SEC-MALS; separated 18-mer fraction of the wild type after size exclusion chromatography; Superdex 200 10/300, 20 mM Tris, 50 mM NaCl, pH 7.5
[3] = target: Aggregation Suppressing Protein A (AgsA) wild type, tagless (Salmonella enterica serovar typhimurium LT2); test: SEC-MALS; unseparated wild type protein; Superose 6 10/300, 20 mM Tris, 200 mM NaCl, pH 8.0; about 100 uL of 2 mg/mL injected
[4] = target: AgsA:DD, double deletion AgsA lacking 11 residues at the N-terminus and 9 residues at the C-terminus, tagless (Salmonella enterica serovar typhimurium LT2); test: crystal structure; AgsA:DD; 30% polypropylene glycol 400, 0.1 M NaCl, 20 °C; space group R32, 3 dimers in the asymmetric unit, 7.5 Å
[5] = target: AgsA:DD, double deletion AgsA lacking 11 residues at the N-terminus and 9 residues at the C-terminus, tagless (Salmonella enterica serovar typhimurium LT2); test: SEC; analytical SEC, Superose 6 10/300, 20 mM Tris, 50 mM NaCl, pH 7.5, calibrated with molecular weight markers; oligomeric state in solution
[6] = target: AgsA:DelC, AgsA lacking 9 residues at the C-terminus, tagless (Salmonella enterica serovar typhimurium LT2); test: crystal structure; AgsA:DelC; 30% pentaerythritol propoxylate (5/4 PO/OH), 0.1 M MES pH 6.0, 30% glycerol, 20 °C; space group I23, a dimer in the asymmetric unit, 4.1 Å
[7] = target: AgsA:DelC, AgsA lacking 9 residues at the C-terminus, tagless (Salmonella enterica serovar typhimurium LT2); test: SEC; analytical SEC, Superose 6 10/300, 20 mM Tris, 50 mM NaCl, pH 7.5, calibrated with molecular weight markers; oligomeric state in solution
[8] = target: AgsA:His-DD, hexa-histidine tagged double deletion construct of AgsA (Salmonella enterica serovar typhimurium LT2); test: as above
[9] = target: core ACD fragment of AgsA:His-DD (degraded fragment in the crystal, residues 35-147) (Salmonella enterica serovar typhimurium LT2); test: crystal structure; AgsA:His-DD degraded in the drop; 25% pentaerythritol propoxylate (5/4 PO/OH), 0.1 M MES pH 6.0, 20% MPD, 20 °C; space group P4(1)2(1)2, 2.0 Å

stoichiometry N [1]: 18 and 24
stoichiometry N [2]: 18
stoichiometry N [3]: 18 and 24
Substance: Aggregation Suppressing Protein A (AgsA) wild type, tagless (natural protein)

Substance: AgsA:DD, double deletion AgsA lacking 11 residues at the N-terminus and 9 residues at the C-terminus, tagless (domain or fragment)
stoichiometry N [4]: 18
stoichiometry N [5]: 18

Substance: AgsA:DelC, AgsA lacking 9 residues at the C-terminus, tagless (domain or fragment)
stoichiometry N [6]: 24
stoichiometry N [7]: 24

Substance: AgsA:His-DD, hexa-histidine tagged double deletion construct of AgsA (domain or fragment)
stoichiometry N [8]: 24

Substance: core ACD fragment of AgsA:His-DD (degraded fragment in the crystal, residues 35-147) (domain or fragment)
stoichiometry N [9]: 2

— article PMC4823740
